Test [1] concerns the target T1, primate IL-23 (p40:p19 fusion, 6×HIS) (primate).
T1 chain: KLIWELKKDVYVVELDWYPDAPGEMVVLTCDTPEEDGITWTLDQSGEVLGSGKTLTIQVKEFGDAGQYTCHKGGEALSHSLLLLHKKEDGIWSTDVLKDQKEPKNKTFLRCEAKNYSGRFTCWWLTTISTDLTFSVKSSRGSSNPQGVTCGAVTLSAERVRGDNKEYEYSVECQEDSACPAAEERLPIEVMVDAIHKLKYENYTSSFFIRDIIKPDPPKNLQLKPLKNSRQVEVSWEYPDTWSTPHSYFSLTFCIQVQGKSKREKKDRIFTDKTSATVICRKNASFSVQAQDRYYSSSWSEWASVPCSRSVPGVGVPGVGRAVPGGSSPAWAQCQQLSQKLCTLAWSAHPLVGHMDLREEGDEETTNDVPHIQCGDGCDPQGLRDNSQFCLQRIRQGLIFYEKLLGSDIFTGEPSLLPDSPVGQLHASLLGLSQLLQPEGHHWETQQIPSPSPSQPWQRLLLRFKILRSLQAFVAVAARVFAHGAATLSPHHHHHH
Briefly: cell-based or functional assay.

The target of test [2] is T2, human IL-12 (human, UniProt P29459 23-219; P29460 23-328).
T2 construct: Bioassay used Prospec-Tany Cyt-362
T2 sequence (looked up) 1: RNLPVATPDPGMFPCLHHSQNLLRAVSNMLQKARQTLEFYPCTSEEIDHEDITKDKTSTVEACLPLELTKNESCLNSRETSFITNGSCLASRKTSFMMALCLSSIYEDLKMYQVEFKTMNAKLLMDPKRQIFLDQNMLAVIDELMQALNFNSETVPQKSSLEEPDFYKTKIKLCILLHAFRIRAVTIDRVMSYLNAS
T2 sequence (looked up) 2: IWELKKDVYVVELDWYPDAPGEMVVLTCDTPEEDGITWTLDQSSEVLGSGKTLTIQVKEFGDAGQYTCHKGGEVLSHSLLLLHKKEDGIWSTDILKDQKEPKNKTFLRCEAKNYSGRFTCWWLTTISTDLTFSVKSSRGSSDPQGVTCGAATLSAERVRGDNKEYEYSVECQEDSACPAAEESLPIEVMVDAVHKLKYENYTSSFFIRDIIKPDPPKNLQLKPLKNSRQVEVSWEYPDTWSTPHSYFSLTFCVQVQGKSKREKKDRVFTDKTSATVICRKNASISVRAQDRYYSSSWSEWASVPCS
Nature of the test: ELISA, human IL-12 coated on the plate; antibody concentration not given [Binding to Human IL-12]. (In general: An ELISA detects its analyte on a solid surface through an enzyme-linked reagent.)

The target in test [3] is T3, human IL-12 p40 subunit (human, UniProt P29460 23-328).
T3 construct: Coated on ELISA plates
T3 sequence (looked up): T2 sequence (looked up) 2
Briefly: ELISA, human IL-12 p40 subunit coated on the plate; antibody concentration not given [Binding to human IL-12 p40].

The target of test [4] is T4, human IL-6 (human, UniProt P05231 30-212). Briefly: cell-based or functional assay.
Test [5] deals with T5, Primate IL-6 (Macaca mulatta, UniProt P51494).
T5 sequence (cytokine, looked up): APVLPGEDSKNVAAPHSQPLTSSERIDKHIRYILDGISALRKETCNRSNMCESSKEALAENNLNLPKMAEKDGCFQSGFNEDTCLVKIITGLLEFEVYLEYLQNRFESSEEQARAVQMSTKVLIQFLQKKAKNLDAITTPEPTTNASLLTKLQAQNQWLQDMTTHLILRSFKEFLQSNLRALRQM
Nature of the test: cell-based or functional assay.

Test [6] has as its target T4, human IL-6. Nature of the test: SPR (SensiQ Pioneer), mAb captured on protein G, IL-6 as analyte (3×FLAG-IL-6 or IL-6 CYT-213, 1-100 nM), 25 C, 1:1 model. As for the experimental part:
Equilibrium constants for rabbit human chimeric mAbs were determined by binding the mAb to the protein G coated chip followed by binding of each analyte (IL-6 or IL-23) to its respective mAb. In order to minimize mass transfer effects, the surface densities of the mAbs for each analyte were adjusted so that as analyte binding approached saturation its corresponding RU fell between 200 and 300. […] For each binding and dissociation cycle the chip surface was regenerated with 15 uL of 20 mM NaOH (5671-02, Mallinckrodt Baker, Philliphsburg, N.J.). The assay temperature was maintained at 25° C. with an analyte flow rate of 50 μL/min and included a 2 minute association phase and 10-30 minute dissociation phase. The on/off rates (kₐ/kd) and dissociation constants (KD) were determined using the format described above along with pseudo-first-order 1:1 interaction model software (Qdat, ICx Nomadics, Stillwater, Okla.).

For test [7], the target named is T4, human IL-6. Briefly: cell-based or functional assay. The source holds these as a separate data set.
Test [8] has as its target T5, Primate IL-6. Briefly: cell-based or functional assay. This is another data set of the same source.
Test [9] addresses T2, human IL-12. Briefly: ELISA, human IL-12 coated on the plate; 13A8 is the anti IL-6 negative control [Binding to Human IL-12].
Another test has as its target T6, monkey IL-12 (macaque) (macaque, UniProt P48091 23-219; P48095 23-328).
T6 construct: also called macaque IL-12
T6 sequence (looked up) 1: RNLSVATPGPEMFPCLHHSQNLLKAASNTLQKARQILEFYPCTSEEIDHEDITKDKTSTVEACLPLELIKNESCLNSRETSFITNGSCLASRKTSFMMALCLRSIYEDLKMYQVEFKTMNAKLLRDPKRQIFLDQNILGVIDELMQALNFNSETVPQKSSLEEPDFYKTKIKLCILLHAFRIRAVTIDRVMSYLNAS
T6 sequence (looked up) 2: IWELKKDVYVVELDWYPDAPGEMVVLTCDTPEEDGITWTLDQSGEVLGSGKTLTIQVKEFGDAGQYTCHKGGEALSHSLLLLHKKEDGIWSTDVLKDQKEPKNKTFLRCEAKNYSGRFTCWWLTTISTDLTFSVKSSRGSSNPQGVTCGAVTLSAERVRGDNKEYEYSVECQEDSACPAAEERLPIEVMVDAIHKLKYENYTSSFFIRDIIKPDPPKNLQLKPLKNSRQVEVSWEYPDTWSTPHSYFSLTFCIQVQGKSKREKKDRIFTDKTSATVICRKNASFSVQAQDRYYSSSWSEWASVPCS
Nature of the test: ELISA, monkey (macaque) IL-12 coated on the plate; 13A8 is the anti IL-6 negative control [Binding to Monkey IL-12].

The target in test [10] is T3, human IL-12 p40 subunit. Briefly: ELISA, human IL-12 p40 subunit coated on the plate; 13A8 is the anti IL-6 negative control [Binding to human IL-12 p40].

From patent US20160194391A1 (AstraZeneca / MedImmune, published 2016) come the findings set out here.

Read-outs that look alike come from different tables or passages of the source.

B1: 31A12 chimeric mAb (antibody, V domains shown)
VH: QSLEESGGRLVTPGTPLTLTCTASGFSLSSYWMTWVRQAPGGGLEWIGTIATSSTYYASWAKGRFTISRTSTTVDLKMTSLTTEDTATYFCARGLTTDYDLDLWGPGTLVTVSS
VL: LVMTQTPASVSAAVGGTVTINCQASEDIESYLAWYQQKPGQRPKLLIYSASTLTSGVPSRFKGSGSGKQFTLTISGVQREDAATYYCLGADDTTTVFGGGTKVVVVR
notes: Rabbit/human chimeric IgG (human IgG1, kappa); HEK293; also called 31A12 mAb
For B1, the “IC50 (read off the curve) (IL-17 from mouse splenocytes, OD450)” value in [1] is roughly 0.2 ng/mL. The binding result in the test with human IL-12 [2] and with human IL-12 p40 subunit [3] was “binds” in each case.

B2: 9H4 chimeric mAb (antibody, V domains shown)
VH: QSLEESGGRLVTPGTPLTLTCTASGFSLSSYDMSWVRQAPGKGLEWIGYIYTDTSTYYANWAKGRFSISKTSTTVDLKMTSLTAEDTATYFCAKGSTDYAFDTRLDLWGPGTLVTVSS
VL: YDMTQTPASVEVAMGGTVTIKCQASQSISNELSWYQQKPGQPPKLLIYRTSTLASGVSSRFKGSGSGTEYTLTISGVECADAATYYCQQGYNSNDVDNVFGGGTEVVVVR
notes: Rabbit/human chimeric IgG (human IgG1, kappa); HEK293; also called 9H4 clone
By Kd is commonly meant the free concentration of one partner at which half of the binding sites on the other are occupied at equilibrium, for simple one-to-one binding. The koff is the first-order rate constant of dissociation. As a reminder, the kon is the rate constant with which the complex forms. B2: in the test with human IL-6 [4], the “EC50, inhibition of IL-6 induced B9 cell proliferation” value turned out to be 0.109 ng/mL. In addition, the “IC50 (read off the curve) (B9 proliferation, OD570-600)” value with Primate IL-6 [5] was roughly 10 ng/mL. In addition, in the test with human IL-6 [6], the affinity, expressed as Kd, was 0.058 nM; the koff was found to be 4.75e-05 s⁻¹; the kon is 816000 M⁻¹ s⁻¹.

B3: 13A8 chimeric mAb (antibody, V domains shown)
VH: QSVEESGGRLVTPGTPLTLTCTVSGIDLSSYDMSWVRQAPGKGLEWIGYIYTDSSTWYANWAKGRFTISKTSSTTVDLKMTSLTTEDTATYFCAKGSTDYAFDTRLDLWGPGTLVTVSS
VL: NIVMTQTPSPVSGAVGGTVTINCQASQSISNELSWYQQKPGQPPRLLIYRASTLTSGVSSRFKGSGAGTQFTLTISGVECADAATYYCQQGYNSNDVDNVFGGGTKVVVVR
notes: HEK293; also called 13A8 clone
On to B3, for which the “EC50, inhibition of IL-6 induced B9 cell proliferation” value in the test with human IL-6 [7] stood at 0.034 ng/mL. Moreover, in the test with Primate IL-6 [8], the “IC50 (read off the curve) (B9 proliferation, OD570-600)” value is roughly 0.4 ng/mL. The binding result in the test with human IL-12 [9] was “no binding”. In the test with human IL-6 [6], the Kd was determined as 0.218 nM, the koff stood at 0.000138 s⁻¹ and the kon was found to be 633000 M⁻¹ s⁻¹. The binding result in the test with monkey IL-12 (macaque) is on record as “no binding”. In addition, the binding result with human IL-12 p40 subunit [10] is “no binding”.
